This assay addresses T1, hCD137L-mFc (human CD137L extracellular domain and mouse IgG-Fc fusion protein) (human, UniProt P41273 50-254).
T1 construct: human CD137 ligand (4-1BBL), extracellular domain; a silent g to c change at base 405 destroys an AgeI site without any amino acid changed; also called hL; hL-mFc; source: COS-7, transfected, purified (rProtein A Sepharose)
In words: ELISA; purified hCD137L-mFc coated at 1 µg/ml; expression supernatants of human or mouse CD137-hFc fragments added; goat anti-human IgG-HRP; positive if P/N>2.1. The settings on record: one partner purified.

T1 sequence (P41273 50-254): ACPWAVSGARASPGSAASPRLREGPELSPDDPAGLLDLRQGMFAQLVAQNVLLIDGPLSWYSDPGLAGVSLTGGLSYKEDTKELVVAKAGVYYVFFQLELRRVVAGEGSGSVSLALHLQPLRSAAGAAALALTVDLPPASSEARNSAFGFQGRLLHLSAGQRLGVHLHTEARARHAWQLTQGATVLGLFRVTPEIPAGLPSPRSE

B1: mouse CD137 extracellular domain with hFc tail (mE-hFc) (Fc fusion, UniProt P20334 24-185, looked up)
chain: VQNSCDNCQPGTFCRKYNPVCKSCPPSTFSSIGGQPNCNICRVCAGYFRFKKFCSSTHNAECECIEGFHCLGPQCTRCEKDCRPGQELTKQGCKTCSLGTFNDQNGTGVCRPWTNCSLDGRSVLKTGTTEKDVVCGPPVVSFSPSTTISVTPEGGPGGHSLQ
notes: signal peptide in the construct; mouse CD137 (4-1BB), entire extracellular region with its own leader (1-23 aa), CRDI-IV and the hinge-like region (STP), residues 1-185; Runs as a dimer on SDS-PAGE without 2-ME; also called mE-Fc; mCD137-hFc; source: COS-7, transfected (DEAE dextran); expression supernatant, and purified (rProtein A Sepharose); not shown: Fc (human IgG1 hinge-CH2-CH3), …
Take B1: the “binding relative to that of human CD137” value is around 30%.

Source of the values: article PMC3897701, “Human and Mouse CD137 Have Predominantly Different Binding CRDs to Their Respective Ligands” (PLoS ONE, 2014).
